Experimental data as given in article PMC6611741 (2019).

Target: Bovine serum albumin (Bos taurus (Bovine), UniProt P02769)
Experiment: EGOTFT (SiMoT), BSA-functionalized gate

Sequence of Bovine serum albumin (P02769 25-607): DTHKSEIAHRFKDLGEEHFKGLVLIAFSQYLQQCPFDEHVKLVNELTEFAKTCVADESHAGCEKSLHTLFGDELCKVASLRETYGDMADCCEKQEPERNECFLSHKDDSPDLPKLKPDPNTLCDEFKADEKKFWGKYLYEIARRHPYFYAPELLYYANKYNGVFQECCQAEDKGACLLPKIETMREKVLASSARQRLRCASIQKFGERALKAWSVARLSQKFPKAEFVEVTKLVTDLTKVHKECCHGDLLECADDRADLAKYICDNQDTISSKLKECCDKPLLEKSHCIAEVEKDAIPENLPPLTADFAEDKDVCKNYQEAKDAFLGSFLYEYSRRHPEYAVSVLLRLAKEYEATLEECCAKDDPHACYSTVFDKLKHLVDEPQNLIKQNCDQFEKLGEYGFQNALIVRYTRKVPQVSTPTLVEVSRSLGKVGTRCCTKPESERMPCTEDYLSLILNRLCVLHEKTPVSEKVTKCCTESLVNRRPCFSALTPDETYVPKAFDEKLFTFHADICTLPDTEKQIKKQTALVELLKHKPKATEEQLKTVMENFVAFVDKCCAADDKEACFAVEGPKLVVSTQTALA

B1: Human C-reactive protein (protein)
chain: QTDMSRKAFVFPKESDTSYVSLKAPLTKPLKAFTVCLHFYTELSSTRGYSIFSYATKRQDNEILIFWSKDIGYSFTVGGSEILFEVPEVTVAPVHICTSWESASGIVEFWVDGKPRVRKSLKKGYTVGAEASIILGQEQDSFGGNFEGSQSLVGDIGNVNMWDFVLSPDEINTIYLGGPFSPNVLNWRALKYEVQGEVFTKPQLWP
B1: no binding.
